Data on six molecules can be found in patent US11833164B2, “Methods of treating Fabry disease in patients having a mutation in the GLA gene” (Amicus Therapeutics, Inc., priority 2019, dated 2023).

For this test, the system named is mutant form of α-Gal A expressed in HEK-293 cells. The test can be described thus: HEK assay (GLP HEK / Migalastat Amenability Assay): α-Gal A activity in lysates of transiently transfected HEK-293 cells incubated with or without 10 μM migalastat. Type of test: cell-based, human. As to conditions: for Absolute increase (% WT): 10 μM migalastat versus baseline; for Relative increase: 10 μM migalastat α-Gal A activity relative to baseline; for 10 μM migalastat α-Gal A activity (% WT): 5 days; for 10 μM migalastat α-Gal A activity (% WT) / Baseline α-Gal A activity (% WT): percentage of baseline wild-type α-Gal A activity; for 10 μM migalastat α-Gal A activity (% WT) / Baseline α-Gal A activity (% WT) / Baseline α-Gal A activity / 10 μM migalastat α-Gal A activity: mean ± SEM; for Baseline α-Gal A activity (% WT): absence of migalastat; for Baseline α-Gal A activity / 10 μM migalastat α-Gal A activity: lysates of HEK-293 cells transfected with the mutant form; for Baseline α-Gal A activity: incubated 5 days in the absence of migalastat; for 10 μM migalastat α-Gal A activity: incubated 5 days with 10 μM migalastat. A digest of the protocol: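 HEK-293 cells transiently transfected with mutant α-Gal A and incubated with or without 10 μM migalastat; lysate activity given as nmol free 4-MU released per mg protein per hour. Values are mean±SEM.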

B1: T158A (protein)
chain: MQLRNPELHLGCALALRFLALVSWDIPGARALDNGLARTPTMGWLHWERFMCNLDCQEEPDSCISEKLFMEMAELMVSEGWKDAGYEYLCIDDCWMAPQRDSEGRLQADPQRFPHGIRQLANYVHSKGLKLGIYADVGNKTCAGFPGSFGYYDIDAQAFADWGVDLLKFDGCYCDSLENLADGYKHMSLALNRTGRSIVYSCEWPLYMWPFQKPNYTEIRQYCNHWRNFADIDDSWKSIKSILDWTSFNQERIVDVAGPGGWNDPDMLVIGNFGLSWNQQVTQMALWAIMAAPLFMSNDLRHISPQAKALLQDKDVIAINQDPLGKQGYQLRQGDNFEVWERPLSGLAWAVAMINRQEIGGPRSYTIAVASLGKGVACNPACFITQLLPVKRKLGFYEWTSRLRSHINPTGTVLLQLENTMQMSLKDLL
With B1, the “Absolute increase (% WT)” value is given as 28.7 % WT, the Relative increase worked out at 1.7, the “10 μM migalastat α-Gal A activity (% WT)” value was determined as 67.3 ± 3.1 % WT and the “Baseline α-Gal A activity (% WT)” value amounted to 38.6 ± 2.5 % WT. In addition, the “Baseline α-Gal A activity” value was 14835 ± 1107 nmol/mg/h and the “10 μM migalastat α-Gal A activity” value was determined as 25678 ± 1673 nmol/mg/h.

B2: F159L (protein)
chain: MQLRNPELHLGCALALRFLALVSWDIPGARALDNGLARTPTMGWLHWERFMCNLDCQEEPDSCISEKLFMEMAELMVSEGWKDAGYEYLCIDDCWMAPQRDSEGRLQADPQRFPHGIRQLANYVHSKGLKLGIYADVGNKTCAGFPGSFGYYDIDAQTLADWGVDLLKFDGCYCDSLENLADGYKHMSLALNRTGRSIVYSCEWPLYMWPFQKPNYTEIRQYCNHWRNFADIDDSWKSIKSILDWTSFNQERIVDVAGPGGWNDPDMLVIGNFGLSWNQQVTQMALWAIMAAPLFMSNDLRHISPQAKALLQDKDVIAINQDPLGKQGYQLRQGDNFEVWERPLSGLAWAVAMINRQEIGGPRSYTIAVASLGKGVACNPACFITQLLPVKRKLGFYEWTSRLRSHINPTGTVLLQLENTMQMSLKDLL
With B2, the “Absolute increase (% WT)” value is reported as 28.0 % WT, the Relative increase came out at 1.4, the “10 μM migalastat α-Gal A activity (% WT)” value is given as 103.6 ± 10.7 % WT and the “Baseline α-Gal A activity (% WT)” value stood at 75.6 ± 8.4 % WT. For the same molecule, the “Baseline α-Gal A activity” value turned out to be 22840 ± 1245 nmol/mg/h and the “10 μM migalastat α-Gal A activity” value turned out to be 31357 ± 1408 nmol/mg/h.

B3: F159I (protein)
chain: MQLRNPELHLGCALALRFLALVSWDIPGARALDNGLARTPTMGWLHWERFMCNLDCQEEPDSCISEKLFMEMAELMVSEGWKDAGYEYLCIDDCWMAPQRDSEGRLQADPQRFPHGIRQLANYVHSKGLKLGIYADVGNKTCAGFPGSFGYYDIDAQTIADWGVDLLKFDGCYCDSLENLADGYKHMSLALNRTGRSIVYSCEWPLYMWPFQKPNYTEIRQYCNHWRNFADIDDSWKSIKSILDWTSFNQERIVDVAGPGGWNDPDMLVIGNFGLSWNQQVTQMALWAIMAAPLFMSNDLRHISPQAKALLQDKDVIAINQDPLGKQGYQLRQGDNFEVWERPLSGLAWAVAMINRQEIGGPRSYTIAVASLGKGVACNPACFITQLLPVKRKLGFYEWTSRLRSHINPTGTVLLQLENTMQMSLKDLL
Regarding B3, the “Absolute increase (% WT)” value worked out at 24.6 % WT, the Relative increase is listed as 1.4, the “10 μM migalastat α-Gal A activity (% WT)” value amounted to 89.3 ± 4.2 % WT and the “Baseline α-Gal A activity (% WT)” value was 64.7 ± 3.5 % WT. Moreover, the “Baseline α-Gal A activity” value was determined as 21543 ± 1754 nmol/mg/h and the “10 μM migalastat α-Gal A activity” value came out at 29402 ± 1960 nmol/mg/h.

B4: T158N (protein)
chain: MQLRNPELHLGCALALRFLALVSWDIPGARALDNGLARTPTMGWLHWERFMCNLDCQEEPDSCISEKLFMEMAELMVSEGWKDAGYEYLCIDDCWMAPQRDSEGRLQADPQRFPHGIRQLANYVHSKGLKLGIYADVGNKTCAGFPGSFGYYDIDAQNFADWGVDLLKFDGCYCDSLENLADGYKHMSLALNRTGRSIVYSCEWPLYMWPFQKPNYTEIRQYCNHWRNFADIDDSWKSIKSILDWTSFNQERIVDVAGPGGWNDPDMLVIGNFGLSWNQQVTQMALWAIMAAPLFMSNDLRHISPQAKALLQDKDVIAINQDPLGKQGYQLRQGDNFEVWERPLSGLAWAVAMINRQEIGGPRSYTIAVASLGKGVACNPACFITQLLPVKRKLGFYEWTSRLRSHINPTGTVLLQLENTMQMSLKDLL
For the molecule B4, the “Absolute increase (% WT)” value is on record as 12.8 % WT, the Relative increase was found to be 3.1, the “10 μM migalastat α-Gal A activity (% WT)” value worked out at 18.2 ± 2 % WT and the “Baseline α-Gal A activity (% WT)” value came to 5.4 ± 0.2 % WT. Further, the “Baseline α-Gal A activity” value amounted to 1906 ± 106 nmol/mg/h and the “10 μM migalastat α-Gal A activity” value is 5991 ± 499 nmol/mg/h.

B5: T158S (protein)
chain: MQLRNPELHLGCALALRFLALVSWDIPGARALDNGLARTPTMGWLHWERFMCNLDCQEEPDSCISEKLFMEMAELMVSEGWKDAGYEYLCIDDCWMAPQRDSEGRLQADPQRFPHGIRQLANYVHSKGLKLGIYADVGNKTCAGFPGSFGYYDIDAQSFADWGVDLLKFDGCYCDSLENLADGYKHMSLALNRTGRSIVYSCEWPLYMWPFQKPNYTEIRQYCNHWRNFADIDDSWKSIKSILDWTSFNQERIVDVAGPGGWNDPDMLVIGNFGLSWNQQVTQMALWAIMAAPLFMSNDLRHISPQAKALLQDKDVIAINQDPLGKQGYQLRQGDNFEVWERPLSGLAWAVAMINRQEIGGPRSYTIAVASLGKGVACNPACFITQLLPVKRKLGFYEWTSRLRSHINPTGTVLLQLENTMQMSLKDLL
Take B5: the “Absolute increase (% WT)” value stood at 19.8 % WT, the Relative increase worked out at 1.3, the “10 μM migalastat α-Gal A activity (% WT)” value amounted to 99.1 ± 5.6 % WT and the “Baseline α-Gal A activity (% WT)” value is recorded as 79.3 ± 4 % WT. In addition, the “Baseline α-Gal A activity” value is 31043 ± 2073 nmol/mg/h and the “10 μM migalastat α-Gal A activity” value turned out to be 39060 ± 2937 nmol/mg/h.

B6: T158I (protein)
chain: MQLRNPELHLGCALALRFLALVSWDIPGARALDNGLARTPTMGWLHWERFMCNLDCQEEPDSCISEKLFMEMAELMVSEGWKDAGYEYLCIDDCWMAPQRDSEGRLQADPQRFPHGIRQLANYVHSKGLKLGIYADVGNKTCAGFPGSFGYYDIDAQIFADWGVDLLKFDGCYCDSLENLADGYKHMSLALNRTGRSIVYSCEWPLYMWPFQKPNYTEIRQYCNHWRNFADIDDSWKSIKSILDWTSFNQERIVDVAGPGGWNDPDMLVIGNFGLSWNQQVTQMALWAIMAAPLFMSNDLRHISPQAKALLQDKDVIAINQDPLGKQGYQLRQGDNFEVWERPLSGLAWAVAMINRQEIGGPRSYTIAVASLGKGVACNPACFITQLLPVKRKLGFYEWTSRLRSHINPTGTVLLQLENTMQMSLKDLL
For B6, the “Absolute increase (% WT)” value was found to be 18.8 % WT, the Relative increase amounted to 1.4, the “10 μM migalastat α-Gal A activity (% WT)” value is given as 67.8 ± 3.4 % WT and the “Baseline α-Gal A activity (% WT)” value was found to be 49 ± 2.7 % WT. Besides, the “Baseline α-Gal A activity” value was determined as 17360 ± 1159 nmol/mg/h and the “10 μM migalastat α-Gal A activity” value stood at 24097 ± 1695 nmol/mg/h.
